Assay results reported in patent publication US8304565B2, “PEG-lipid conjugates for liposomes and drug delivery” (priority 2008, dated 2012).

Legend:
human red blood cells = assay: Hemolysis of human red blood cells; type: cell-based; details: equivalent concentrations (20 mmol), absorbance at 413 nm
Description: In addition, hemolysis of human red blood cells was performed to provide a more quantitative cytotoxicity evaluation of the PEG-grafted lipids. Cell lysis caused by cytotoxic material leads to release of heme into solution, which was detected by absorbance at 413 nm and compared to control experiments performed in the absence of the synthetic material. Results in Table 6 for equivalent concentrations (20 mmol) of sodium lauryl sulfate (SLS) and mPEG-600 were shown for the comparison.

[1] = In vitro stability of selective linkers at low pH; type: physicochemical; details: 10 mM phosphate buffer (pH 2.1), approximately 0.05 g/mL, 37°, GPC with RI detector
Description: Three DAG-PEGs with equivalent PEG chains and fatty acids, but different linkages (shown in Table 5) were tested for stability at low pH, in the range of 1.4 to 2.1. Table 5 includes alternate names for each of the three DAG-PEGs tested.
The selected DAG-PEGs were mixed with 10 mM phosphate buffer (pH 2.1) at final concentrations approximately 0.05 g/mL and incubated at 37° . The sample solutions were tested on a GPC column with RI detector and the breakdown fragments were further confirmed by LC-MS/MS.
In FIG. 1, (1) is PEG (n=12)-3-acetyl-1,2-rac-dioleoylglucerol, (2) is PEG (n=12)-3-acetamido-dioleoylglycerol and (3) is PEG (n=12)-3-N-(mercaptomethyl)-Propionamido-1,2-rac-dioleoylglucerol.

[2] = Spontaneous liposome formation of DAG-PEG lipids; type: physicochemical
From the text: Herein, we describe biologically degradable linear PEG analogs carrying diacylglycerol lipid groups. These new molecules belong to a class referred to as diacylglycerol-polyethyleneglycols (DAG-PEGs). DAG-PEGs having certain properties form liposomes spontaneously upon mixing with an aqueous solution. Briefly, DAG-PEGs or lipid mixtures including DAG-PEGs must have packing parameters that allow liposome formation. Generally, Pa is preferably between about 0.84 and 0.88, and Pv is preferably between about 0.88 and 0.93. Also, the DAG-PEGs or lipid mixtures including DAG-PEGs must have a melting point below the temperature of liposome formation. If a DAG-PEG meets these conditions, it will form liposomes spontaneously (without external energy inputs). Spontaneous liposomes and DAG-PEGs are described in U.S. Pat. No. […], which is hereby incorporated by reference. The particular DAG-PEGs described in U.S. Pat. No. […] utilized a single oxy (alternatively called oxyl) linkage between the PEG and the glycerol backbone.
A number of new DAG-PEGs were synthesized and tested. Most of the combinations of PEG chains and fatty acids were chosen because it was known or expected that such DAG-PEGs with oxy linkages would have packing parameters and melting points favorable for the formation of liposomes.

[3] = mouse, in vivo, iv, 10 mg/kg
Description: Groups of three male mice (B6D2F1) were used for the studies. Pharmacokinetics (PK) were performed on heparinized mouse plasma samples obtained typically at 0 hr, 0.08 hr, 0.25 hr, 0.5 hr, 1 hr, 2 hr, 4 hr, 8 hr, 16 hr and 24 hr after the bolus IV injection or oral feeding for posaconazole and at 0 hr, 0.08 hr, 0.25 hr, 0.5 hr, 1 hr, 2 hr, 4 hr, 8 hr, 16 hr and 24 hr for itraconazole. Samples were analyzed using a HPLC-MS method. To determine the level of each drug, the drug was first isolated from plasma with a sample pre-treatment. Acetonitrile were used to remove proteins in samples. An isocratic HPLC-MS method was then used to separate the drugs from any potential interference. Drug levels were measured by MS detection with a multiple reaction monitoring (MRM) mode. PK data was analyzed using the WinNonlin program (ver. 5.2, Pharsight) compartmental models of analysis.
The drug was administered intravenously and the dosing strength was 10 mg/kg.

CCCCCCCCCCCCOS(=O)(=O)[O-].[Na+] [SLS, sodium lauryl sulfate]
% Hemolysis (human red blood cells): 80%

PEG (n=12)-3-N-(mercaptomethyl)-Propionamido-1,2-rac dioleoylglycerol [PEG-12-S2-GDO]
stability at low pH [1]: degraded quickly

PEG (n=12)-3-acetamido-dioleoylglycerol [PEG-12-N3-GDO]
stability at low pH [1]: relatively stable

PEG (n=12)-3-acetyl-1,2-rac-dioleoylglycerol [PEG-12-Ac2-GDO]
stability at low pH [1]: stable
Spontaneous Liposome at 20° C. ([2]; 20° C.): Yes
Spontaneous Liposome at 37° C. ([2]; 37° C.): Yes

POPC
AUC [3]: 164.1 µg·h/mL
